Data reported in US20100317598A1 (University of California, published 2010).

What was measured:
[1] = target: cytochrome C (human, UniProt P99999 2-105); assay: immunopurification of cytochrome C from transfected HBL-100 cells, quantified immunoblot for APAF-1
Procedure: Immunoblots were quantified using a Kodak 4000 Imaging Station and software. […] Values were obtained from three independent experiments.
HBL-100 and MCF-7 cells were exposed to UV light (6,600 microwatt seconds per square centimeter), or treated with adriamycin (0.2 μg ml⁻¹) for 24 h. […] Immunoblots shown were quantified on a Kodak 4000 Imaging Station and software.

[2] = target: p53 (human, UniProt P04637 1-393); assay: cell-based or functional assay
p53, sequence (P04637 whole entry): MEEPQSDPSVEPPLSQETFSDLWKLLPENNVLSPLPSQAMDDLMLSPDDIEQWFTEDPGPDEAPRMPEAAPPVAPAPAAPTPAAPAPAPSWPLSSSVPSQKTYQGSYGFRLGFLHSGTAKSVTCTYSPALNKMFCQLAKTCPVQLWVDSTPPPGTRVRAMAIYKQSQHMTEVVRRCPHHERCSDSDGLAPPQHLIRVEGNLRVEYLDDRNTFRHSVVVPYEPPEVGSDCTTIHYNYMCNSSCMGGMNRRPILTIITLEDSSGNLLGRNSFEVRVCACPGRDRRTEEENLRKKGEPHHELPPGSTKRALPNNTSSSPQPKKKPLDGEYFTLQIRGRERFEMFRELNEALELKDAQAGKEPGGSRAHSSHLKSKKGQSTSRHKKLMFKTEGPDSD

cytochrome C, sequence (P99999 2-105 limits assumed): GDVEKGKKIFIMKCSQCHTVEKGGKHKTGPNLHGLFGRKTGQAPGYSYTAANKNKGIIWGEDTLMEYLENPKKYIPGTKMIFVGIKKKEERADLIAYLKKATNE

Binder | fold increase of APAF-1 associated to cytochrome C (cells expressing BRCA1 (772-1292) against cells expressing control BRCA1 wt or BRCA1 (772-1036)) [1] | expression of p21 (immunoblot of immunopurified p21), HBL-100 cells [2] | percentage of cells in apoptosis (annexin-V-FITC binding), HBL-100 cells [2]
APAF-1 (other, human, UniProt O14727 1-1248, looked up) MDAKARNCLLQHREALEKDIKTSYIMDHMISDGFLTISEEEKVRNEPTQQQRAAMLIKMILKKDNDSYVSFYNALLHEGYKDLAALLHDGIPVVSSSSGKDSVSGITSYVRTVLCEGGVPQRPVVFVTRKKLVNAIQQKLSKLKGEPGWVTIHGMAGCGKSVLAAEAVRDHSLLEGCFPGGVHWVSVGKQDKSGLLMKLQNLCTRLDQDESFSQRLPLNIEEAKDRLRILMLRKHPRSLLILDDVWDSWVLKAFDSQCQILLTTRDKSVTDSVMGPKYVVPVESSLGKEKGLEILSLFVNMKKADLPEQAHSIIKECKGSPLVVSLIGALLRDFPNRWEYYLKQLQNKQFKRIRKSSSYDYEALDEAMSISVEMLREDIKDYYTDLSILQKDVKVPTKVLCILWDMETEEVEDILQEFVNKSLLFCDRNGKSFRYYLHDLQVDFLTEKNCSQLQDLHKKIITQFQRYHQPHTLSPDQEDCMYWYNFLAYHMASAKMHKELCALMFSLDWIKAKTELVGPAHLIHEFVEYRHILDEKDCAVSENFQEFLSLNGHLLGRQPFPNIVQLGLCEPETSEVYQQAKLQAKQEVDNGMLYLEWINKKNITNLSRLVVRPHTDAVYHACFSEDGQRIASCGADKTLQVFKAETGEKLLEIKAHEDEVLCCAFSTDDRFIATCSVDKKVKIWNSMTGELVHTYDEHSEQVNCCHFTNSSHHLLLATGSSDCFLKLWDLNQKECRNTMFGHTNSVNHCRFSPDDKLLASCSADGTLKLWDATSANERKSINVKQFFLNLEDPQEDMEVIVKCCSWSADGARIMVAAKNKIFLFDIHTSGLLGEIHTGHHSTIQYCDFSPQNHLAVVALSQYCVELWNTDSRSKVADCRGHLSWVHGVMFSPDGSSFLTSSDDQTIRLWETKKVCKNSAVMLKQEVDVVFQENEVMVLAVDHIRRLQLINGRTGQIDYLTEAQVSCCCLSPHLQYIAFGDENGAIEILELVNNRIFQSRFQHKKTVWHIQFTADEKTLISSSDDAEIQVWNWQLDKCIFLRGHQETVKDFRLLKNSRLLSWSFDGTVKVWNIITGNKEKDFVCHQGTVLSCDISHDATKFSSTSADKTAKIWSFDLLLPLHELRGHNGCVRCSAFSVDSTLLATGDDNGEIRIWNVSNGELLHLCAPLSEEGAATHGGWVTDLCFSPDGKMLISAGGYIKWWNVVTGESSQTFYTNGTNLKKIHVSPDFKTYVTVDNLGILYILQTLE | 3 fold | – | –
HA-tag-BRCA1 (772-1292) (other, not shown: small tags and cut ends) VPGTDYGTQESISLLEVSTLGKAKTEPNKCVSQCAAFENPKGLIHGCSKDNRNDTEGFKYPLGHEVNHSRETSIEMEESELDAQYLQNTFKVSKRQSFAPFSNPGNAEEECATFSAHSGSLKKQSPKVTFECEQKEENQGKNESNIKPVQTVNITAGFPVVGQKDKPVDNAKCSIKGGSRFCLSSQFRGNETGLITPNKHGLLQNPYRIPPLFPIKSFVKTKCKKNLLEENFEEHSMSPEREMGNENIPSTVSTISRNNIRENVFKEASSSNINEVGSSTNEVGSSINEIGSSDENIQAELGRNRGPKLNAMLRLGVLQPEVYKQSLPGSNCKHPEIKKQEYEEVVQTVNTDFSPYLISDNLEQPMGSSHASQVCSETPDDLLDDGEIKEDTSFAENDIKESSAVFSKSVQKGELSRSPSPFTHTHLAQGYRRGAKKLESSEENLSSEDEELPCFQHLLFGKVNNIPSQSTRHSTVATECLSKNTEENLLSLKNSLNDCSNQVILAKASQEHHLSEETKCS | – | 5 fold | > 10 fold
